This note sets out measurements from publication PMC4497662, “Single Turnover Autophosphorylation Cycle of the PKA RIIβ Holoenzyme” (PLoS Biology, 2015).

Residue numbers refer to the chain shown, from its start. In names and notes the source's numbering stands.

Data set [1] concerns the target T1, PKA catalytic subunit (isoform α), mouse (mouse, UniProt P05132 2-351). Nature of the data set: SPR; GST-RIIβ 102–416 wild type and S112A captured on an anti-GST antibody CM5 chip (80 RU), C-subunit 30–0.12 nM injected; buffer A with 1 mM ATP and 10 mM CaCl2; 30 μL/min, 25°C. Particulars: both partners purified.
Data set [2] has as its target T1, PKA catalytic subunit (isoform α), mouse. Kind of data set: SPR; GST-RIIβ 102–416 (nonphospho, phospho or S112A) captured on an anti-GST antibody CM5 chip (80–120 RU), C-subunit injected; buffer A (20 mM MOPS, 150 mM NaCl, 100 μM EDTA, 100 μM EGTA, 0.01% P20) with 1 mM ATP and 10 mM MgCl2; global fit, 1:1 Langmuir; 25°C stated for the series of Fig 5. As to conditions: both partners purified.

Data set [3] has the same target. Nature of the data set: SPR; GST-RIIβ 102–416 (nonphospho or phospho) captured on an anti-GST antibody CM5 chip (80–120 RU), C-subunit 0.3–200 nM injected; buffer A only (chelators EDTA/EGTA, no nucleotide or metal); global fit, 1:1 Langmuir. Particulars: both partners purified.
Data set [4] has the same target. Kind of data set: SPR; GST-RIIβ 102–416 (nonphospho or phospho) captured on an anti-GST antibody CM5 chip (80–120 RU), C-subunit 0.3–200 nM injected; buffer A with 1 mM ADP and 10 mM MgCl2; global fit, 1:1 Langmuir. As to conditions: both partners purified.
The target is the same in data set [5]. Nature of the data set: SPR; GST-RIIβ 102–416 (nonphospho, phospho or S112A) captured on an anti-GST antibody CM5 chip (80–120 RU), C-subunit injected; buffer A (20 mM MOPS, 150 mM NaCl, 100 μM EDTA, 100 μM EGTA, 0.01% P20) with 1 mM ATP and 10 mM MgCl2; global fit, 1:1 Langmuir; 25°C stated for the series of Fig 5. Particulars: both partners purified. The source holds these as a separate data set.

Data set [6] concerns the molecule itself. Nature of the data set: crystal structure; apo RIIβ(1–416, R230K)2:C2 holoenzyme crystals soaked overnight with 5 mM CaCl2 and 1 mM ATP; 2.8 Å.
Data set [7] addresses T1, PKA catalytic subunit (isoform α), mouse. Described as above. Particulars: both partners purified.

B1: GST-RIIβ 102–416 (nonphosphorylated, wild type) (domain or fragment, rat, UniProt P12369 102-416, looked up)
chain: PVINRFTRRASVCAEAYNPDEEEDDAESRIIHPKTDDQRNRLQEACKDILLFKNLDPEQMSQVLDAMFEKLVKEGEHVIDQGDDGDNFYVIDRGTFDIYVKCDGVGRCVGNYDNRGSFGELALMYNTPRAATITATSPGALWGLDRVTFRRIIVKNNAKKRKMYESFIESLPFLKSLEVSERLKVVDVIGTKVYNDGEQIIAQGDSADSFFIVESGEVRITMKRKGKSDIEENGAVEIARCLRGQYFGELALVTNKPRAASAHAIGTVKCLAMDVQAFERLLGPCMEIMKRNIATYEEQLVALFGTNMDIVEPTA
notes: also called nonphospho form of RIIβ; source: E. coli BL21 (DE3), purified (cAMP resin, cGMP elution); cyclic nucleotide-free
For the molecule B1, the dissociation rate constant (koff) in data set [1] is about 0.0001 s⁻¹; in data set [2], 0.0003 s⁻¹; in data set [3], 0.00021 s⁻¹; in data set [4], 0.00015 s⁻¹. The results for the dissociation constant (Kd) in data set [2], in data set [3] and in data set [4] were 140 pM, 390 pM and 240 pM, respectively. For the same molecule, the kon in data set [2] is 2.1e+06 M⁻¹ s⁻¹; in data set [3], 530000 M⁻¹ s⁻¹; in data set [4] it was 640000 M⁻¹ s⁻¹.

B2: phosphorylated GST-RIIβ 102–416 (pRIIβ) (domain or fragment, rat, UniProt P12369 102-416, looked up)
chain: B1 chain
modifications: phosphoserine at 112
notes: source: E. coli BL21 (DE3), purified; phosphorylated in preformed holoenzyme with C-subunit and MgATP, C-subunit released on the chip with 500 nM cGMP
In data set [2], B2 displayed a Kd of 7000 pM, a koff of 0.00026 s⁻¹ and a kon of 38000 M⁻¹ s⁻¹. In data set [3], this molecule registered a Kd of 310 pM, a koff of 0.00011 s⁻¹ and a kon of 340000 M⁻¹ s⁻¹. In data set [4], this molecule gave a Kd of 220 pM, a koff of 0.00012 s⁻¹ and a kon of 550000 M⁻¹ s⁻¹.

B3: GST-RIIβ 102–416 S112A (domain or fragment, rat, UniProt P12369 102-416, looked up)
chain: B1 chain with S11A
notes: also called RIIβ(S112A); source: E. coli BL21 (DE3), purified (cAMP resin, cGMP elution); cyclic nucleotide-free
Turning to B3, the binding result in data set [5] was “binds”.

B4: RIIβ(1–416, R230K), phosphorylated at Ser112 in the crystal (natural protein)
chain: not shown
modifications: phosphoserine at 112 (after the soak with CaATP)
notes: Two copies stand with two C-subunits in the RIIβ2:C2 holoenzyme; also called pRIIβ; RIIβ(R230K); source: E. coli BL21 (DE3), purified (cAMP resin, cGMP elution); holoenzyme crystals soaked with 5 mM CaCl2 and 1 mM ATP
Turning to B4, the binding result in data set [6] and in data set [7] was “binds” each time.
